Measured values from patent publication US7794927B2, “Method for identifying agonists or antagonists of the G-protein coupled receptor mas-like 1” (priority 2002, dated 2010).
Ends that are not written are not given here.

Columns and labels:
[1] = target: T1, G protein-coupled receptor mas-like 1 (Homo sapiens, UniProt Q96LB1); assay: FLIPR assay of stimulation of mas-like 1 transiently expressed in CHO-K1 cells (Fluo4 Ca2+ fluorescence); format: cell-based; settings: for agonistic effects on mas-like 1: test system designed in accordance with the detection method; for formation of fluorescence in the cells: CHO-K1 cells transiently expressing mas-like 1, zero value about 20 fluorescence intensity units
T1 construct: The receptor has therefore been amplified starting from genomic DNA using a polymerase chain reaction (PCR); expressed in transfected cells; host or cells: CHO-K1 (transient, pcDNA3.1)
T1 sequence (Q96LB1 1-330): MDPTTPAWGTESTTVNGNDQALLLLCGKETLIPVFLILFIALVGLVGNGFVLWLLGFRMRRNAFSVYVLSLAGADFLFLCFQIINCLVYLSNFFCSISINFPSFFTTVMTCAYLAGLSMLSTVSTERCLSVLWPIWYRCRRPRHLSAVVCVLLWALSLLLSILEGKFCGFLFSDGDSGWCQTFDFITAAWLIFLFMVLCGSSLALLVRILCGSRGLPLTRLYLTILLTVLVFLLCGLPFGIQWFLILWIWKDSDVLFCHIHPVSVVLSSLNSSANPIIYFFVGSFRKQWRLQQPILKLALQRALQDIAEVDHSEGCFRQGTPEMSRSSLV
Experimental: CHO-K1 cells were cultivated in basal Iscove's medium supplemented with 10% fetal bovine serum, 10 000 U/ml-10 000 μg/ml penicillin-streptomycin, gentamycin and 2 mM glutamine.
Iscove's medium is commercially available inter alia from Biochrom, Berlin. The composition of Iscove's medium is described in “Iscove, N. N., Melchers, F., Journal of Experimental Medicine 147, 923-933 (1978)”. The CHO-K1 cells were applied in an amount of 2×10^5 cells to a 35 mm culture dish for the transient transfection. The cells were transfected after incubation for about 24 hours or at a confluence of 50-80% with 2 μg of DNA using Lipofectamine reagent which is commercially available inter alia from Invitrogen Life Technologies, Karlsruhe.
About 16 to 18 hours after the transfection, the cells were transferred into 96-well microtiter plates with a density of about 80 000 cells per well. Incubation was then continued for 18 to 24 hours. After this, 95 μl of HBSS (Hank's buffered saline solution) which contained 20 mM HEPES, 2.5 mM probenecid, 4 μM Fluo4 and 1% fetal bovine serum were added, and incubation was carried out in the presence of 5% CO2 at 37° C. for 1 hour. Fluo4 is a dye which fluoresces in the presence of Ca^2+. Fluo4 is sold commercially inter alia by Molecular Probes Europe BV, Leiden. After the incubation, the cells were washed three times with PBS (phosphate buffered saline) which contained 1 mM MgCl2, 1 mM EDTA and 2.5 mM probenecid.
After the last washing step, about 100 μl of the solution were left on the cells in each well. The peptides to be tested were dissolved in water or DMSO (dimethyl sulfoxide) in a concentration of 2 mM. The appropriate dilutions of the final concentration ([…]) were prepared starting from such a stock solution. The fluorescence was measured using a FLIPR (Fluorometric Imaging Plate Reader; Molecular Devices GmbH, Ismaning) for a total of 3 minutes at 1-second intervals for the first minute and at 3-second intervals during the second and third minute. The measurements between 18 seconds and 37 seconds were used to determine the agonistic effect.
Various peptides were tested for their property of stimulating the G protein-coupled receptor mas-like 1. The test was carried out using FLIPR technology. The receptor was for this purpose transiently expressed in CHO-K1 cells.

[2] = target: T1, G protein-coupled receptor mas-like 1; assay: Arachidonic acid liberation in transiently transfected CHO-K1 cells; format: cell-based

Substance	agonistic effects on mas-like 1 [1]	formation of fluorescence in the cells [1]	concentration dependence of activation of the receptors ([1]; concentration range from 5×10^−6 to 1×10^−5M)	liberation of arachidonic acid [2]
substance P4-11: fragment of substance P, SEQ ID NO:11 (PQQFFGL; listed as Homo sapiens)	Agonistic effects were shown			
H-Phe-Leu-Phe-Gln-Pro-Gln-Arg-Pro-NH2 (H-FLFQPQRP-NH2; listed as Homo sapiens) [neuropeptide FF, natural ligand of mas-like 1]		ca. 2 000 fluorescence intensity units		
PKPQQFFGLM [substance P2-11]		ca. 2 500 fluorescence intensity units	linear dependence	liberated arachidonic acid
substance P1-9: N-terminal fragment of substance P, SEQ ID NO:12 (RPKPQQFFG; listed as Homo sapiens)	Agonistic effects were shown			
